Among the data in the supplement of paper PMC10567573 are protein stability index values, retold here.

The nature of the data set: protein stability index of a GFP-peptide fusion (GPS, HEK-293T) (PSI 1-6); higher = more stable. The settings on record: c terminus: a fixed tail appended.

± gives the standard deviation.
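Also: 24-mer peptide tiles fused after GFP, lentivirally expressed, FACS-sorted into six equal bins by GFP/DsRed ratio, decoded by Illumina sequencing, PSI is the read-weighted mean bin number.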

For the sequence ARNIGFKVNSKKMLGKYNTPVSYR [ACSBG2], the protein stability index (treatment: DMSO) is 2.32 ± 0.37 and the protein stability index (treatment: MLN4924 1 uM, 8 h) was determined as 2.55 ± 0.14.
Regarding ARPTEVLAGTQLLYAFFTRTHGDM [TRIB3], the protein stability index is, setting by setting: (treatment: DMSO) 2.43 ± 0.45; (treatment: MLN4924 1 uM, 8 h) 2.33 ± 0.38.
Take ARRKSELPQDPHTKKALEAHCRAD [PPP2R5C]: the protein stability index reads like this: (treatment: DMSO) 4.68 ± 0.34; (treatment: MLN4924 1 uM, 8 h) 5.17 ± 0.12.
ASCCIDPREDGASVNDQCGFGVLR [TSPAN10] gave a protein stability index (treatment: DMSO) of 3.44 ± 0.14 and a protein stability index (treatment: MLN4924 1 uM, 8 h) of 3.83 ± 0.31.
Consider ASGLTGFIGLEVVAQLFNCMVGLL [ATL3], for which the protein stability index by setting is: (treatment: DMSO) 2.26 ± 0.16; (treatment: MLN4924 1 uM, 8 h) 2.15 ± 0.1.
With ASKTVFFFFSSPGNNNGTSIEDGQ [BTBD1], the protein stability index stood at 2.55 ± 1.3 (treatment: DMSO) and 2.29 ± 0.74 (treatment: MLN4924 1 uM, 8 h).
Take ASLLQPVTPLGTSRWRKISAALPY [NCF4]: the protein stability index reads like this: (treatment: DMSO) 2.46 ± 0.4; (treatment: MLN4924 1 uM, 8 h) 2.61 ± 0.3.
On to ATFEKILESELLRGTQYSSLDSLD [PSD2], for which the protein stability index reads like this: (treatment: DMSO) 2.25 ± 0.23; (treatment: MLN4924 1 uM, 8 h) 2.41 ± 0.14.
For ATHILVRQQGNPGHRSIYLALKLP [ADAMTS4], the protein stability index is, setting by setting: (treatment: DMSO) 2.92 ± 0.62; (treatment: MLN4924 1 uM, 8 h) 2.1 ± 0.35.
As for ATKQLDFTRKTLAEKKQELDKLRN [SASS6], the protein stability index runs as follows: (treatment: DMSO) 4.19 ± 0.26; (treatment: MLN4924 1 uM, 8 h) 4.43 ± 0.24.
Take ATYISEVHEHDGHLYLGSFRSPFL [APMAP]: the protein stability index by setting is: (treatment: DMSO) 2.37 ± 0.4; (treatment: MLN4924 1 uM, 8 h) 1.97 ± 0.14.
In the case of AVAHKTPRCPGSVNEKLPQREGTG [SMOC2], the protein stability index by setting is: (treatment: DMSO) 5.13 ± 0.47; (treatment: MLN4924 1 uM, 8 h) 5.33 ± 0.12.
For the sequence AVGKMGFVVTMLKLIQKKLLDKTC [ZER1], the protein stability index worked out at 2.29 ± 0.64 (treatment: DMSO) and 2.35 ± 0.8 (treatment: MLN4924 1 uM, 8 h).
Turning to AVKGSLGSDLGGPLPTDPMLGLAL [TSPAN10], the protein stability index reads like this: (treatment: DMSO) 3.16 ± 0.17; (treatment: MLN4924 1 uM, 8 h) 3.06 ± 0.12.
For AVQLRHAWNPEDRSLNVFVKDDDR [SPSB4], the protein stability index by setting is: (treatment: DMSO) 4.21 ± 0.25; (treatment: MLN4924 1 uM, 8 h) 4.24 ± 0.26.
For AVSTEDLKECLKKQLEFCFSRENL [LARP4], in that order: 2.65 ± 0.55 and 3.11 ± 0.68.
On to AVTKDFKLTDKHETVVSYLPLSHI [ACSBG2], for which the protein stability index is 2.98 ± 0.075 (treatment: DMSO) and 3.08 ± 0.64 (treatment: MLN4924 1 uM, 8 h).
AVVAAGGGSSGQVTSNGSIGRDPP [CLPTM1]: the protein stability index worked out at 4.75 ± 0.13 (treatment: DMSO) and 4.88 ± 0.26 (treatment: MLN4924 1 uM, 8 h).
As for AYACLVCGKYFQGRGLKSHAYIHS [USP39], the protein stability index reads like this: (treatment: DMSO) 2.29 ± 0.27; (treatment: MLN4924 1 uM, 8 h) 2.51 ± 0.52.
As to AYIATQGPLAETTEDFWRMLWEHN [PTPRD], the protein stability index (treatment: DMSO) came to 2.79 ± 0.46 and the protein stability index (treatment: MLN4924 1 uM, 8 h) stood at 2.8 ± 0.37.
Regarding AYTHGCILHPELTVDSMIPAYATT [GDAP1], the protein stability index is, setting by setting: (treatment: DMSO) 2.65 ± 0.15; (treatment: MLN4924 1 uM, 8 h) 2.76 ± 0.063.
Turning to CCTHNNSATLSWKQPPLSTVPADG [TRIM9], the protein stability index runs as follows: (treatment: DMSO) 3.09 ± 0.073; (treatment: MLN4924 1 uM, 8 h) 3.02 ± 0.088.
For CEDQKQIKKPESFSKQIVLRGKSI [NEUROD6] the same measures were 4.7 ± 0.21 and 4.61 ± 0.21.
Regarding CHQMGVVHRDLKPENLLLASKCKG [CAMK2B], the protein stability index is 3.7 ± 0.16 (treatment: DMSO) and 3.84 ± 0.39 (treatment: MLN4924 1 uM, 8 h).
Consider CLEGSINEHSAHCPHTPEFSVTGG [RPAIN], for which the protein stability index came out at 4.2 ± 0.41 (treatment: DMSO) and 4.07 ± 0.21 (treatment: MLN4924 1 uM, 8 h).
Turning to CLGVHCDFHQGLLSFYNARTKQVL [FSD1], the protein stability index came to 2.42 ± 0.69 (treatment: DMSO) and 2.27 ± 0.18 (treatment: MLN4924 1 uM, 8 h).
Regarding CLTTGDVIAINYNEKIYELRVMET [UFD1], the protein stability index is, setting by setting: (treatment: DMSO) 2.25 ± 0.35; (treatment: MLN4924 1 uM, 8 h) 2.04 ± 0.27.
As for CMAFELATGDYLFEPHSGEDYSRD [SRPK2], the protein stability index by setting is: (treatment: DMSO) 3.87 ± 0.47; (treatment: MLN4924 1 uM, 8 h) 4.12 ± 0.25.
For CNLWDSHHPEVPQRILRIMCRLEE [HDAC6], the protein stability index by setting is: (treatment: DMSO) 2.55 ± 0.16; (treatment: MLN4924 1 uM, 8 h) 2.35 ± 0.28.
For CQNKCRIALVENIPEGLNYSENAP [PLD5], in that order: 3.03 ± 0.45 and 3.23 ± 0.64.
Regarding CRANRNCPIDQHHRNQCQYCRLKK [NR2F2], the protein stability index by setting is: (treatment: DMSO) 4.2 ± 0.044; (treatment: MLN4924 1 uM, 8 h) 4.39 ± 0.14.
Consider CSCLSDILRFIYSGAFQWEELEED [RHOBTB3], for which the protein stability index is, setting by setting: (treatment: DMSO) 2.35 ± 0.41; (treatment: MLN4924 1 uM, 8 h) 1.88 ± 0.34.
For CSDSDKKCHLWTAMDLGFFVVMGV [CLCN6], in that order: 2.95 ± 0.63 and 2.97 ± 0.5.
Regarding CSHNLCQACARNILVQTPESESPQ [TRIM9], the protein stability index is 3.57 ± 0.33 (treatment: DMSO) and 3.85 ± 0.33 (treatment: MLN4924 1 uM, 8 h).
For the sequence CTMEPEPVQPGMLIDVCKYLGSLQ [TRIM35], the protein stability index by setting is: (treatment: DMSO) 2.43 ± 0.13; (treatment: MLN4924 1 uM, 8 h) 2.41 ± 0.22.
CTRPVPRNGGKYCEGRRTRFRSCN [ADAMTS4] had a protein stability index (treatment: DMSO) of 3.79 ± 0.14 and a protein stability index (treatment: MLN4924 1 uM, 8 h) of 4.12 ± 0.24.
